From patent US9688719B2, “Glycogen synthase kinase-3 inhibitors” (Ramot at Tel-Aviv University Ltd., priority 2011, dated 2017)
Square brackets hold non-standard residues; d marks the D form. Ends that are not written are not given here. * marks the point of attachment. Myristoyl = CCCCCCCCCCCCCC(=O)*; pS = N[C@@H](COP(=O)(O)O)C(=O)O

Assays:
GSK-3β F93A mutant = biological target: T1, GSK-3β F93A mutant (Homo sapiens, UniProt P49841, F93A); assay: In vitro kinase assay, inhibition of the F93A mutant; format: biochemical; settings: FIGS. 2B, 2C
T1 construct: made in house; host or cells: HEK-293 (transient transfection, pCMV4; partial purification on DE-52)
T1 sequence (P49841 1-433 isoform P49841-2 F93A): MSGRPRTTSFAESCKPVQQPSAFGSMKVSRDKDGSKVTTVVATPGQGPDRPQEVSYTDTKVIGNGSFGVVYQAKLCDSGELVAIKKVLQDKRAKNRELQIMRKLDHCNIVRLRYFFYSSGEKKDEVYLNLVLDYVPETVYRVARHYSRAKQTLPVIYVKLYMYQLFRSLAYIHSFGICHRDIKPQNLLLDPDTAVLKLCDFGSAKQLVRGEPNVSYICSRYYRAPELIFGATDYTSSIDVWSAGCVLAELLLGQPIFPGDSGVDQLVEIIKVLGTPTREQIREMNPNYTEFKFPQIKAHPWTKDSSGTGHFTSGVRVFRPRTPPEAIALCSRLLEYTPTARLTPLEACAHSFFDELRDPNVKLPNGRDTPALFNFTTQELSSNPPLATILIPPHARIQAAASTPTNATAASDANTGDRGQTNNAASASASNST
Description: (§1) HEK-293 cells were grown in Dulbecco's Modified Eagle's Medium (DMEM), supplemented with 10% fetal calf serum (FCS), 2 mM glutamine, 100 units/ml penicillin, and 100 μg/ml streptomycin. HEK-293 cells were transiently transfected with indicated constructs, using calcium phosphate method as described [Ilouz et al. (2006) supra]. Cells were lysed in ice-cold buffer G (20 mM Tris-HCl, pH 7.5, 10 mM β-glycerophosphate, 10% glycerol, 1 mM EGTA, 1 mM EDTA, 50 mM NaF, 5 mM sodium pyrophosphate, 0.5 mM orthovanadate, 1 mM benzamidine, 10 μg/ml leupeptin, 5 μg/ml aprotinin, 1 μg/ml pepstatin, and 0.5% Triton X100). Cell extracts were centrifuged for 30 minutes at 15,000×g. […]
(§2) The GSK-3β proteins (WT or mutants) were incubated with indicated substrate in a reaction mixture (50 mM Tris-HCl, pH 7.3, 10 mM magnesium acetate, and 0.01% β-mercaptoethanol) together with 100 μM ^32P[γ-ATP] […] Reactions were stopped by spotting on p81 paper (Whatman) washed with phosphoric acid, and counted for radioactivity as previously described [Ilouz et al. (2006) supra]. In assays from cells overexpressing GSK-3 proteins, the activity of the endogenous GSK-3 that was determined in cells transfected with the pCMV4 vector was subtracted from the activity values obtained for WT and mutants. […]

[1] = test system: GSK-3β mutants Q89A, N95A, R92A, K94A, F93Y and TM (91-93); assay: In vitro kinase assay, inhibition of other GSK-3β mutants; format: biochemical, human; settings: data not shown
Description: as §1, §2

GSK-3β = GSK-3β (Homo sapiens, UniProt P49841)
Sequence of GSK-3β (P49841 1-433 isoform P49841-2): as the sequence (P49841 1-433 isoform P49841-2 F93A) above, with A93F counted along it
Description: (§3) The GSK-3β proteins (WT or mutants) were incubated with indicated substrate in a reaction mixture (50 mM Tris-HCl, pH 7.3, 10 mM magnesium acetate, and 0.01% β-mercaptoethanol) together with 100 μM ^32P[γ-ATP] (0.5 μCi/assay) for 15 minutes. Reactions were stopped by spotting on p81 paper (Whatman) washed with phosphoric acid, and counted for radioactivity as previously described [Ilouz et al. (2006) supra]. In assays from cells overexpressing GSK-3 proteins, the activity of the endogenous GSK-3 that was determined in cells transfected with the pCMV4 vector was subtracted from the activity values obtained for WT and mutants.
Purified GSK-3β was subjected to in vitro kinase assays using pIRS-1, p9CREB, and pGS-1 substrate in the presence or absence of L803-mts (100 μM).

GSK-3 = assay: Inhibition of cellular GSK-3 in SH-SY5Y cells (Western blot); format: cell-based, human; settings: 20 or 40 μM, 5 hours, FIG. 8
Description: In an additional assay, human neuroblastoma SH-SY5Y cells, were treated with L803-mts (as set forth in SEQ ID NO:5) or L803F-mts (as set forth in SEQ ID NO:12) (20 or 40 μM) for 5 hours. Cells were collected and lysed in ice-cold buffer G (20 mM Tris pH 7.5, 10 mM β-glycerophosphate, 10% glycerol, 1 mM EGTA, 1 mM EDTA, 50 mM NaF, 5 mM sodium pyrophosphate, 0.5 mM orthovanadate, 1 mM benzamidine, 5 μg/ml leupeptin, 25 μg/ml aprotinin, 5 μg/ml pepstatin, and 0.5% Triton X100). Equal amounts of proteins (30 μg) were subjected to gel electrophoresis, transferred to nitrocellulose membranes, and immunoblotted with the anti-β-catenin antibody or anti-phospho-HSF-1 antibody (heat shock factor-1)(ser 303). FIG. 8 presents the β-catenin levels and phosphorylation levels of HSF-1 (ser 303) as determined by Western blot analysis using specific antibodies, with non-treated cells indicated as control (Con).

pGS-1 = assay: In vitro kinase assay of GSK-3β mutants with substrate pGS-1; format: biochemical; settings: mean ± SEM; WT set to 100%
Description: (§4) HEK-293 cells were grown in Dulbecco's Modified Eagle's Medium (DMEM), supplemented with 10% fetal calf serum (FCS), 2 mM glutamine, 100 units/ml penicillin, and 100 μg/ml streptomycin. HEK-293 cells were transiently transfected with indicated constructs, using calcium phosphate method as described [Ilouz et al. (2006) supra]. Cells were lysed in ice-cold buffer G (20 mM Tris-HCl, pH 7.5, 10 mM β-glycerophosphate, 10% glycerol, 1 mM EGTA, 1 mM EDTA, 50 mM NaF, 5 mM sodium pyrophosphate, 0.5 mM orthovanadate, 1 mM benzamidine, 10 μg/ml leupeptin, 5 μg/ml aprotinin, 1 μg/ml pepstatin, and 0.5% Triton X100). Cell extracts were centrifuged for 30 minutes at 15,000×g. Supernatants were collected, and equal amounts of proteins were boiled with SDS sample buffer and subjected to gel electrophoresis (7.5-12% polyacrylamide gel), transferred to nitrocellulose membranes, and immunoblotted with indicated antibodies. For partial purification, cells were lysed in buffer H (20 mM Tris, pH 7.3, 1 mM EGTA, 1 mM EDTA, 1 mM orthovanadate, 25 μg/ml leupeptin, 25 μg/ml aprotinin, and 25 μg/ml pepstatin A, 500 nM microcystine LR, and 0.25% Triton X100). The lysates were centrifuged at 15,000×g. The resulting supernatants were passed through DE-52 (Whatman, Maidstone, England) mini-columns that were equilibrated with buffer H. GSK-3β proteins were eluted with the same buffer containing 0.02 M NaCl. Equal amounts of proteins were used for in vitro kinase assays.
as §3
(§5) The GSK-3β mutants were partially purified by ion exchange chromatography, and their abilities to phosphorylate peptide substrates were tested in in vitro kinase assays. The substrates were: pIRS-1, p9CREB, and pGS-1, phosphorylated peptides derived from the insulin receptor substrate-1 (IRS-1), cAMP responsive element binding protein (CREB), and glycogen synthase, respectively.

pIRS-1 = assay: In vitro kinase assay of GSK-3β mutants with substrate pIRS-1; format: biochemical; settings: mean ± SEM; WT set to 100%
Description: as §4, §3, §5

p9CREB = assay: In vitro kinase assay of GSK-3β mutants with substrate p9CREB; format: biochemical; settings: mean ± SEM; WT set to 100%
Description: as §4, §3, §5

In the case of KEAPPAPPQS(p)P (KEAPPAPPQ[pS]P) [L803], the “inhibition of substrate phosphorylation by F93A” value (GSK-3β F93A mutant) is reported as “did not inhibit” and the “inhibition of other GSK-3β mutants” value [1] is reported as “inhibited all other mutants”.

With “L803-mts: L803 in which myristic acid was attached to its N-terminal; cell permeable variant (Myristoyl-GKEAPPAPPQ[pS]P)” the “inhibition of substrate phosphorylation by F93A” value (GSK-3β F93A mutant) was “did not inhibit”, the “competition with substrates pIRS-1, p9CREB, pGS-1” value (GSK-3β; purified GSK-3β, 100 μM, FIG. 2A) was “competes with various substrates” and the “inhibition of other GSK-3β mutants” value [1] was “inhibit all other mutants”.

With “Lys-Glu-Ala-Pro-Pro-Ala-Pro-Pro-Gln-phosphorylated Ser-Pro-Phe [L803F]” the “inhibition of substrate phosphorylation at increasing concentrations, compared to L803” value (GSK-3β; FIG. 7) was “improved activity”.

“Myristic-Gly-Lys-Glu-Ala-Pro-Pro-Ala-Pro-Pro-Gln-phosphorylated Ser-Pro-Phe (Myristoyl-GKEAPPAPPQ[pS]PF) [L803F-mts]” was tested, and the “phosphorylation levels of HSF-1 (serine 303)” value (GSK-3) was “reduced the phosphorylation levels” and the β-catenin levels (GSK-3) was “elevation in β-catenin levels”.

B1: K94A: GSK-3β mutant, K94 replaced by alanine (protein)
chain: MSGRPRTTSFAESCKPVQQPSAFGSMKVSRDKDGSKVTTVVATPGQGPDRPQEVSYTDTKVIGNGSFGVVYQAKLCDSGELVAIKKVLQDKRFANRELQIMRKLDHCNIVRLRYFFYSSGEKKDEVYLNLVLDYVPETVYRVARHYSRAKQTLPVIYVKLYMYQLFRSLAYIHSFGICHRDIKPQNLLLDPDTAVLKLCDFGSAKQLVRGEPNVSYICSRYYRAPELIFGATDYTSSIDVWSAGCVLAELLLGQPIFPGDSGVDQLVEIIKVLGTPTREQIREMNPNYTEFKFPQIKAHPWTKDSSGTGHFTSGVRVFRPRTPPEAIALCSRLLEYTPTARLTPLEACAHSFFDELRDPNVKLPNGRDTPALFNFTTQELSSNPPLATILIPPHARIQAAASTPTNATAASDANTGDRGQTNNAASASASNST
modifications: GSK-3 beta, K94A mutant
notes: GSK-3β mutant, K94 replaced by alanine
For B1, the “Substrate phosphorylation (% of WT GSK-3β), pGS-1” value (pGS-1) was 19 ± 14 % of WTGSK-3β, the “Substrate phosphorylation (% of WT GSK-3β), pIRS-1” value (pIRS-1) was 52 ± 19 % of WTGSK-3β and the “Substrate phosphorylation (% of WT GSK-3β), p9CREB” value (p9CREB) was 71 ± 4 % of WTGSK-3β.

B2: D90A: GSK-3β mutant, D90 replaced by alanine (protein)
chain: MSGRPRTTSFAESCKPVQQPSAFGSMKVSRDKDGSKVTTVVATPGQGPDRPQEVSYTDTKVIGNGSFGVVYQAKLCDSGELVAIKKVLQAKRFKNRELQIMRKLDHCNIVRLRYFFYSSGEKKDEVYLNLVLDYVPETVYRVARHYSRAKQTLPVIYVKLYMYQLFRSLAYIHSFGICHRDIKPQNLLLDPDTAVLKLCDFGSAKQLVRGEPNVSYICSRYYRAPELIFGATDYTSSIDVWSAGCVLAELLLGQPIFPGDSGVDQLVEIIKVLGTPTREQIREMNPNYTEFKFPQIKAHPWTKDSSGTGHFTSGVRVFRPRTPPEAIALCSRLLEYTPTARLTPLEACAHSFFDELRDPNVKLPNGRDTPALFNFTTQELSSNPPLATILIPPHARIQAAASTPTNATAASDANTGDRGQTNNAASASASNST
modifications: GSK-3 beta, D90A mutant
notes: GSK-3β mutant, D90 replaced by alanine
With B2 the “Substrate phosphorylation (% of WT GSK-3β), pGS-1” value (pGS-1) was 83 ± 2 % of WTGSK-3β, the “Substrate phosphorylation (% of WT GSK-3β), pIRS-1” value (pIRS-1) was 88 ± 15 % of WTGSK-3β and the “Substrate phosphorylation (% of WT GSK-3β), p9CREB” value (p9CREB) was 92 ± 21 % of WTGSK-3β.

B3: K91A: GSK-3β mutant, K91 replaced by alanine (protein)
chain: MSGRPRTTSFAESCKPVQQPSAFGSMKVSRDKDGSKVTTVVATPGQGPDRPQEVSYTDTKVIGNGSFGVVYQAKLCDSGELVAIKKVLQDARFKNRELQIMRKLDHCNIVRLRYFFYSSGEKKDEVYLNLVLDYVPETVYRVARHYSRAKQTLPVIYVKLYMYQLFRSLAYIHSFGICHRDIKPQNLLLDPDTAVLKLCDFGSAKQLVRGEPNVSYICSRYYRAPELIFGATDYTSSIDVWSAGCVLAELLLGQPIFPGDSGVDQLVEIIKVLGTPTREQIREMNPNYTEFKFPQIKAHPWTKDSSGTGHFTSGVRVFRPRTPPEAIALCSRLLEYTPTARLTPLEACAHSFFDELRDPNVKLPNGRDTPALFNFTTQELSSNPPLATILIPPHARIQAAASTPTNATAASDANTGDRGQTNNAASASASNST
modifications: GSK-3 beta, K91A mutant
notes: GSK-3β mutant, K91 replaced by alanine
In the case of B3, the “Substrate phosphorylation (% of WT GSK-3β), pGS-1” value (pGS-1) is reported as 119 ± 5 % of WTGSK-3β, the “Substrate phosphorylation (% of WT GSK-3β), pIRS-1” value (pIRS-1) is reported as 140 ± 18 % of WTGSK-3β and the “Substrate phosphorylation (% of WT GSK-3β), p9CREB” value (p9CREB) is reported as 161 ± 5 % of WTGSK-3β.

B4: R92A: GSK-3β mutant, R92 replaced by alanine (protein)
chain: MSGRPRTTSFAESCKPVQQPSAFGSMKVSRDKDGSKVTTVVATPGQGPDRPQEVSYTDTKVIGNGSFGVVYQAKLCDSGELVAIKKVLQDKAFKNRELQIMRKLDHCNIVRLRYFFYSSGEKKDEVYLNLVLDYVPETVYRVARHYSRAKQTLPVIYVKLYMYQLFRSLAYIHSFGICHRDIKPQNLLLDPDTAVLKLCDFGSAKQLVRGEPNVSYICSRYYRAPELIFGATDYTSSIDVWSAGCVLAELLLGQPIFPGDSGVDQLVEIIKVLGTPTREQIREMNPNYTEFKFPQIKAHPWTKDSSGTGHFTSGVRVFRPRTPPEAIALCSRLLEYTPTARLTPLEACAHSFFDELRDPNVKLPNGRDTPALFNFTTQELSSNPPLATILIPPHARIQAAASTPTNATAASDANTGDRGQTNNAASASASNST
modifications: GSK-3 beta, R92A mutant
notes: GSK-3β mutant, R92 replaced by alanine
B4 was tested, and the “Substrate phosphorylation (% of WT GSK-3β), pGS-1” value (pGS-1) was 41 ± 14 % of WTGSK-3β, the “Substrate phosphorylation (% of WT GSK-3β), pIRS-1” value (pIRS-1) was 60 ± 3 % of WTGSK-3β and the “Substrate phosphorylation (% of WT GSK-3β), p9CREB” value (p9CREB) was 49 ± 19 % of WTGSK-3β.
